Source: the supplement of paper PMC7877785
± gives the uncertainty stated by the source.

Assay: self-splicing fitness, log relative to wild type (ln ratio); higher = more splicing; Tetrahymena group I intron in knt gene, E. coli kanamycin selection, DiMSum; sequences stand for … in CUCUCU…GGAGGGAAAAGUUAUCAGGCAUGCACCUGGUAGCUAGUCUUUAAACCAAUAGAUUGCAUCGGUUUAAAAGGCAAGACCGUCAAAUUGCGGGAAAGGGGUCAACAGCCGUUCAGUACCAAGUCUCAGGGGAAACUUUGAGAUGGCCUUGCAAAGGGUAUGGUAAUAAGCUGACGGACAUGGUCCUAACCACGCAGCCAAGUCCUAAGUCAACAGAUCUUCUGUUGAUAUGGAUGCAGUUCACAGACUAAAUGUCGGUCGGGGAAGAUGUAUUCUUCUCAUAAGAUAUAGUCGGACCUCUCCUUAAUGGGAGCUAGCGGAUGAAGUGAUGCAACACUGGAGCCGCUGGGAACUAAUUUGUAUGCGAAAGUAUAUUGAUUAGUUUUGGAGUACUCGUGGUCG
Method in brief: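 Library with all eight P1ex-region intron nucleotides randomised, intron inside the knt kanamycin-resistance gene on pET-22b(+), in E. coli BL21(DE3). Cells grew overnight at 37°C or 30°C on LB agar with or without 25 μg/mL kanamycin (plus 100 μg/mL carbenicillin, 50 μM IPTG, 0.2% rhamnose), in six replicate transformations. Pooled colonies were amplicon-sequenced on Illumina HiSeq 2500. DiMSum fitness is the error-weighted combination of wild-type-normalised replicate fold changes, kanamycin versus none.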

| Sequence | self-splicing fitness (ln) (30 °C) | self-splicing fitness (ln) (37 °C) |
| --- | --- | --- |
| CAAAAGCAAUAUUACGUUAG | -1.57 ± 0.064 | -0.632 ± 0.084 |
| CAAAAGCAAUAUUACGUUCG | -0.43 ± 0.051 | 0.246 ± 0.066 |
| CAAAAGCAAUAUUACGUUGG | -2.47 ± 0.088 | -1.48 ± 0.1 |
| CAACAGCAAUAUUACGAAAC | -3.87 ± 0.2 | -2.01 ± 0.17 |
| CAACAGCAAUAUUACGAAAG | -0.908 ± 0.053 | 0.316 ± 0.079 |
| CAACAGCAAUAUUACGAAUG | -1.04 ± 0.058 | -0.229 ± 0.074 |
| CAACAGCAAUAUUACGACAC | -2.93 ± 0.18 | -1.79 ± 0.18 |
| CAACAGCAAUAUUACGACCU | -1.18 ± 0.12 | -0.29 ± 0.12 |
| CAACAGCAAUAUUACGACUA | -1.35 ± 0.1 | -0.653 ± 0.092 |
| CAACAGCAAUAUUACGAGGA | -3.65 ± 0.25 | -0.828 ± 0.1 |
| CAACAGCAAUAUUACGAUCA | -1.6 ± 0.097 | -1.33 ± 0.12 |
| CAACAGCAAUAUUACGCAAU | -2.87 ± 0.16 | -1.87 ± 0.15 |
| CAACAGCAAUAUUACGCGAU | -5.11 ± 0.45 | -2.63 ± 0.23 |
| CAACAGCAAUAUUACGCUCA | -1.15 ± 0.096 | -1.4 ± 0.12 |
| CAACAGCAAUAUUACGGAAU | -2.96 ± 0.14 | -3.05 ± 0.2 |
| CAACAGCAAUAUUACGGAGG | -1.33 ± 0.048 | -0.382 ± 0.065 |
| CAACAGCAAUAUUACGGAUA | -3.38 ± 0.17 | -2.14 ± 0.15 |
| CAACAGCAAUAUUACGGCAA | -1.45 ± 0.13 | -1.28 ± 0.12 |
| CAACAGCAAUAUUACGGUGA | -1.58 ± 0.071 | -0.727 ± 0.084 |
| CAACAGCAAUAUUACGGUGU | -3.34 ± 0.12 | -2.55 ± 0.14 |
| CAACAGCAAUAUUACGGUUU | -0.644 ± 0.045 | 0.183 ± 0.056 |

| Sequence | self-splicing fitness (ln) (30 °C) | self-splicing fitness (ln) (37 °C) |
| --- | --- | --- |
| CAACAGCAAUAUUACGUACA | -2.28 ± 0.11 | -1.12 ± 0.093 |
| CAACAGCAAUAUUACGUCCC | -1.72 ± 0.14 | -1.46 ± 0.2 |
| CAACAGCAAUAUUACGUGUC | -2.82 ± 0.13 | -2.04 ± 0.14 |
| CAAGAGCAAUAUUACGAAGU | -3.86 ± 0.34 | -2.3 ± 0.33 |
| CAAGAGCAAUAUUACGAAUU | -3.25 ± 0.17 | -2.64 ± 0.32 |
| CAAGAGCAAUAUUACGACCG | -0.953 ± 0.13 | -0.89 ± 0.14 |
| CAAGAGCAAUAUUACGACGA | -3.01 ± 0.2 | -1.77 ± 0.23 |
| CAAGAGCAAUAUUACGACUU | -2.96 ± 0.12 | -1.46 ± 0.12 |
| CAAGAGCAAUAUUACGAUGA | -3.62 ± 0.33 | -0.971 ± 0.17 |
| CAAGAGCAAUAUUACGCAAA | -2.46 ± 0.24 | -2.56 ± 0.41 |
| CAAGAGCAAUAUUACGCAAG | -3.06 ± 0.17 | -1.99 ± 0.17 |
| CAAGAGCAAUAUUACGCAAU | -3.31 ± 0.44 | -1.52 ± 0.22 |
| CAAGAGCAAUAUUACGCACA | -2.72 ± 0.36 | -1.53 ± 0.43 |
| CAAGAGCAAUAUUACGCCUG | -1.47 ± 0.21 | -2.17 ± 0.32 |
| CAAGAGCAAUAUUACGCGCC | -3.44 ± 0.37 | -1.74 ± 0.42 |
| CAAGAGCAAUAUUACGCGUC | -2.16 ± 0.17 | -2.23 ± 0.23 |
| CAAGAGCAAUAUUACGCGUG | -4.13 ± 0.3 | -1.6 ± 0.16 |
| CAAGAGCAAUAUUACGCUUU | -3.3 ± 0.19 | -2.58 ± 0.18 |
| CAAGAGCAAUAUUACGGAAA | -2.9 ± 0.22 | -2.82 ± 0.22 |
| CAAGAGCAAUAUUACGGAGU | -3.12 ± 0.18 | -2.55 ± 0.22 |
| CAAGAGCAAUAUUACGGCCG | -0.899 ± 0.13 | -0.536 ± 0.17 |
